Measured values published in patent US11957716B2 (Immatics Biotechnologies GmbH, priority 2021, dated 2024).

Key:
HLA-B*44:05 = HLA-B*44:05 (Homo sapiens, UniProt P01889, A223V/A65T/A93T/A95T/D201E/D98Y/E176V/E187L/E204Q/E69K/G107R/H137Y/K202T/L105A/L119I/N104T/N87E/Q56L/Q94N/R106L/R155S/R180D/S101N/S121R/S35A/S48T/T118I/V36M/W191S/Y91S); assay: MHC binding assay, UV-ligand exchange ELISA; details: peptide exchange yield, binding to HLA-B*44:05
HLA-A*02:01 = HLA-A*02:01 (Homo sapiens, UniProt P04439, D140Y/D185E/D98H/E176V/E277Q/G131W/G231S/I119V/I121R/I166T/I218V/L300P/L318F/N151K/N90K/P208A/P217A/Q86G/Q94H/R138H/R169H/T345S); assay: MHC binding assay, UV-ligand exchange ELISA; details: peptide exchange yield, binding to HLA-A*02:01
[1] = system: HLA-A*01:01, HLA-A*02:01, HLA-A*03:01, HLA-A*24:02, HLA-B*07:02, HLA-B*08:01 and HLA-B*44:02; assay: HLA alleles the peptides bind to (Table 7); format: binding, human; details: allotype from the group HLA-A*01:01, HLA-A*02:01, HLA-A*03:01, HLA-A*24:02, HLA-B*07:02, HLA-B*08:01, HLA-B*44:02
Excerpt: However, due to similarities in binding pattern such as the relevant anchoring positions some peptides bind to more than one allele, such an overlap is most likely, but not limited to, HLA-A*01 binding peptides also binding to HLA-B*15, HLA-A*03 binding peptides also binding to HLA-A*11, HLA-B*07 binding peptides also binding to HLA-B*35 and HLA-B*51.

HLA-A*01:01 = HLA-A*01:01 (Homo sapiens, UniProt P04439, A114D/A174V/A182V/D101N/D185E/E176A/E190D/L180R/Q94H/R68K/S129P/T187R/V100A/V91M/W191G); assay: MHC binding assay, UV-ligand exchange ELISA; details: peptide exchange yield, binding to HLA-A*01:01

Substance	Peptide exchange (HLA-B*44:05)	Peptide exchange (HLA-A*02:01)	Peptide exchange (HLA-A*01:01)	Binders (HLA alleles the peptides according to the invention bind to) [1]
5 (METADRPEW; listed as Homo sapiens) [compound 5]	++++ (75% = ++++)	–	–	–
10 (ILMILQPQL; listed as Homo sapiens) [compound 10]	–	++++ (≥75% = ++++)	–	HLA-A*02:01
11 (TEIGTVIKLF; listed as Homo sapiens) [compound 11]	++++ (75% = ++++)	–	–	–
12 (RLQEGLAAL; listed as Homo sapiens) [compound 12]	–	++++ (≥75% = ++++)	–	HLA-A*02:01
23 (AETKQFWSA; listed as Homo sapiens) [compound 23]	++++ (75% = ++++)	–	–	–
26 (ETNTIEFIY; listed as Homo sapiens) [compound 26]	–	–	++++ (≥75% = ++++)	HLA-A*01:01
30 (SLKSSILFL; listed as Homo sapiens) [compound 30]	–	+++ (≥50% = +++)	–	HLA-A*02:01
48 (TEMSVSALY; listed as Homo sapiens) [compound 48]	++++ (75% = ++++)	–	–	–
54 (ASSPVILLL; listed as Homo sapiens) [compound 54]	–	–	++ (≥20% = ++)	HLA-A*01:01
56 (DVDIHKDLY; listed as Homo sapiens) [compound 56]	–	–	++++ (≥75% = ++++)	HLA-A*01:01
57 (IIIDRILLL; listed as Homo sapiens) [compound 57]	–	++++ (≥75% = ++++)	–	HLA-A*02:01
58 (REQLDGATL; listed as Homo sapiens) [compound 58]	++++ (75% = ++++)	–	–	–
65 (NSDLFYLLL; listed as Homo sapiens) [compound 65]	–	–	++++ (≥75% = ++++)	HLA-A*01:01
82 (VLQSLQHEL; listed as Homo sapiens) [compound 82]	–	++++ (≥75% = ++++)	–	HLA-A*02:01
83 (EAAPNIMHY; listed as Homo sapiens) [compound 83]	–	–	++ (≥20% = ++)	HLA-A*01:01
84 (KEFAFLEHSL; listed as Homo sapiens) [compound 84]	++++ (75% = ++++)	–	–	–
92 (LNFSDVFLY; listed as Homo sapiens) [compound 92]	–	–	++ (≥20% = ++)	HLA-A*01:01
97 (ALIVLHLSL; listed as Homo sapiens) [compound 97]	–	++ (≥20% = ++)	–	HLA-A*02:01

Substance	Peptide exchange (HLA-B*44:05)	Peptide exchange (HLA-A*02:01)	Peptide exchange (HLA-A*01:01)	Binders (HLA alleles the peptides according to the invention bind to) [1]
98 (FSEIFQDFL; listed as Homo sapiens) [compound 98]	–	–	+++ (≥50% = +++)	HLA-A*01:01
99 (RADEEQASF; listed as Homo sapiens) [compound 99]	–	–	++ (≥20% = ++)	HLA-A*01:01
102 (FLLLEKGGEL; listed as Homo sapiens) [compound 102]	–	++++ (≥75% = ++++)	–	HLA-A*02:01
113 (ALGPMAFRV; listed as Homo sapiens) [compound 113]	–	++++ (≥75% = ++++)	–	HLA-A*02:01
117 (GEAAAARPV; listed as Homo sapiens) [compound 117]	+++ (50% = +++)	–	–	–
118 (RLLRLIPIL; listed as Homo sapiens) [compound 118]	–	++++ (≥75% = ++++)	–	HLA-A*02:01
121 (ILVTAWKGV; listed as Homo sapiens) [compound 121]	–	+++ (≥50% = +++)	–	HLA-A*02:01
130 (ITPDSIPSV; listed as Homo sapiens) [compound 130]	–	+++ (≥50% = +++)	–	HLA-A*02:01
139 (EEGRIITKW; listed as Homo sapiens) [compound 139]	++++ (75% = ++++)	–	–	–
141 (REVAGASAL; listed as Homo sapiens) [compound 141]	+++ (50% = +++)	–	–	–
147 (VEAPHLPSF; listed as Homo sapiens) [compound 147]	++++ (75% = ++++)	–	–	–
153 (ALNLSRLTV; listed as Homo sapiens) [compound 153]	–	++++ (≥75% = ++++)	–	HLA-A*02:01
168 (AEGPDHHSL; listed as Homo sapiens) [compound 168]	++++ (75% = ++++)	–	–	–
170 (LLDSWNILI; listed as Homo sapiens) [compound 170]	–	++++ (≥75% = ++++)	–	HLA-A*02:01
181 (FDLNIGSAY; listed as Homo sapiens) [compound 181]	++++ (75% = ++++)	–	–	–
206 (VEGVHFVQLL; listed as Homo sapiens) [compound 206]	++++ (75% = ++++)	–	–	–
212 (WETRLHNLW; listed as Homo sapiens) [compound 212]	++++ (75% = ++++)	–	–	–

Continued, in another order:

Peptide exchange (HLA-B*44:05)	Peptide exchange (HLA-A*02:01)	Peptide exchange (HLA-A*01:01)	Substance	Binders (HLA alleles the peptides according to the invention bind to) [1]
–	++++ (≥75% = ++++)	–	18 (SLSKLVATV; listed as Homo sapiens) [compound 18]	HLA-A*02:01
++++ (75% = ++++)	–	–	27 (SQAKQITIW; listed as Homo sapiens) [compound 27]	–
++++ (75% = ++++)	–	–	36 (KEIEAQEAA; listed as Homo sapiens) [compound 36]	–
++++ (75% = ++++)	–	–	39 (RELGVGIAL; listed as Homo sapiens) [compound 39]	–
–	++++ (≥75% = ++++)	–	42 (LLSRGILIL; listed as Homo sapiens) [compound 42]	HLA-A*02:01
–	++++ (≥75% = ++++)	–	45 (SLFPISLTV; listed as Homo sapiens) [compound 45]	HLA-A*02:01
–	–	++ (≥20% = ++)	60 (VSPDEVLALW; listed as Homo sapiens) [compound 60]	HLA-A*01:01
–	–	++++ (≥75% = ++++)	68 (TVDKGELLY; listed as Homo sapiens) [compound 68]	HLA-A*01:01
–	–	+++ (≥50% = +++)	71 (LIDSLLLLL; listed as Homo sapiens) [compound 71]	HLA-A*01:01
–	++ (≥20% = ++)	–	74 (TLNVLITL; listed as Homo sapiens) [compound 74]	HLA-A*02:01
–	++++ (≥75% = ++++)	–	105 (LVFESVVAA; listed as Homo sapiens) [compound 105]	HLA-A*02:01
–	++++ (≥75% = ++++)	–	106 (GLLDAFLRL; listed as Homo sapiens) [compound 106]	HLA-A*02:01
–	+++ (≥50% = +++)	–	108 (SLQESLPNA; listed as Homo sapiens) [compound 108]	HLA-A*02:01
–	++++ (≥75% = ++++)	–	142 (YMLEMDNSMKI; listed as Homo sapiens) [compound 142]	HLA-A*02:01
–	++++ (≥75% = ++++)	–	145 (HLFSVLSAI; listed as Homo sapiens) [compound 145]	HLA-A*02:01
–	+++ (≥50% = +++)	–	167 (FALGPIIKQL; listed as Homo sapiens) [compound 167]	HLA-A*02:01
–	++++ (≥75% = ++++)	–	188 (KLPFFTNFL; listed as Homo sapiens) [compound 188]	HLA-A*02:01
–	++++ (≥75% = ++++)	–	200 (GLLGTLRVL; listed as Homo sapiens) [compound 200]	HLA-A*02:01
